In US20120045437A1 (BOARD OF REGENTS OF THE UNIVERSITY OF OKLAHOMA, published 2012):

Key:
[1] = molecular target: T1, LRP5-Flag (human full-length LRP5) (human, UniProt O75197 32-1615); assay: Western blot, total lysates (50 ug) of transfected HEK-293T cells
T1 construct: Tested as total lysate of transfected HEK-293T cells in a Western blot; not shown: Flag tag
Procedure: (§1) A: HEK-293T cells were separately transfected with plasmids expressing LRP5-Flag and LRP6-Myc, with an empty vector as control. Forty-eight hours post-transfection, total cell lysates (50 μg) were applied for Western blot analysis using Anti-LRP6-1 and an anti-Flag antibody (M2). B: The ability of Anti-LRP6-1 to recognize endogenous LRP6 in different species. Total cell lysates (50 μg) from each cell line were applied for Western blot analysis using Anti-LRP6-1. C: Conditioned media containing LDLRN-Myc, LRP5N-Myc and LRP6N-Myc, and purified recombinant peptides of VLDLR-N-His, LRP6E1E2-His and LRP6E3E4-His were loaded for Western blot analysis using Anti-LRP6-1, anti-His and anti-Myc antibodies. D: Immuno-localization of LRP6 in the retinal cryosections. FITC-labeled Anti-LRP6-1 was used to determine the cellular localization of LRP6 in the retinas of rats (D1-D6) and mice (D7-D12). Non-specific mouse IgG was labeled with FITC and used as a negative control (D1, D4, D7, D10). The sections were stained with FITC-Anti-LRP6-1 (D2, D5, D8, D11). FITC-Anti-LRP6-1 pre-absorbed with 10 μg/ml purified LRP6E1E2-His antigen was used for staining to confirm the specificity of the immunosignals of LRP6 (D3, D6, D9, D12). […]

endogenous human LRP6 = endogenous human LRP6 (human, UniProt O75581 20-1613); assay: cell-based or functional assay
LRP6E3E4-His = molecular target: T2, LRP6E3E4-His (human, UniProt O75581 631-1244); assay: Western blot, purified recombinant fragment
T2 construct: Expressed in E. coli BL21(DE3); Only its E3E4 part stood in the assay; also called E3E4 domain of LRP6; not shown: His tag from pET28b+
T2 sequence: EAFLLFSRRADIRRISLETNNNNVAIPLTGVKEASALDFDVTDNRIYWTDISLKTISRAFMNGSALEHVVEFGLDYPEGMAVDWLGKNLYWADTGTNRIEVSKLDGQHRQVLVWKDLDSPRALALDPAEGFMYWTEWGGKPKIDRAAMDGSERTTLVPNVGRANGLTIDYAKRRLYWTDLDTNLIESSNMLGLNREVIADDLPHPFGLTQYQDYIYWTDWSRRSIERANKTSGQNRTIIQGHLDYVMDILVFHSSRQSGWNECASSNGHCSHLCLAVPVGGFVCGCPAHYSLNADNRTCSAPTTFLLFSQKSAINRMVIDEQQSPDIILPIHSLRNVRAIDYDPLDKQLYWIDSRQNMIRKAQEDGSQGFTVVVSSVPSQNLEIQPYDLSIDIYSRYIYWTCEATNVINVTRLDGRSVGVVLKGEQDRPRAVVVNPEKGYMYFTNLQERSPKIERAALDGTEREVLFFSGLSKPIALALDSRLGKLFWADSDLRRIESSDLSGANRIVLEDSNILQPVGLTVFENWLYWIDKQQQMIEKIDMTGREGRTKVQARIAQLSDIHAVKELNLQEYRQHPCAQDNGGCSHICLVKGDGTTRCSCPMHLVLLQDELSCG
Procedure: (§2) FIG. 15 illustrates specificity of Anti-LRP6-1 on LRP6 ectodomain. A: HEK-293T cells were separately transfected with plasmids expressing LRP5-Flag and LRP6-Myc, with an empty vector as control. Forty-eight hours post-transfection, total cell lysates (50 μg) were applied for Western blot analysis using Anti-LRP6-1 and an anti-Flag antibody (M2). B: The ability of Anti-LRP6-1 to recognize endogenous LRP6 in different species. Total cell lysates (50 μg) from each cell line were applied for Western blot analysis using Anti-LRP6-1. C: Conditioned media containing LDLRN-Myc, LRP5N-Myc and LRP6N-Myc, and purified recombinant peptides of VLDLR-N-His, LRP6E1E2-His and LRP6E3E4-His were loaded for Western blot analysis using Anti-LRP6-1, anti-His and anti-Myc antibodies. D: Immuno-localization of LRP6 in the retinal cryosections. FITC-labeled Anti-LRP6-1 was used to determine the cellular localization of LRP6 in the retinas of rats (D1-D6) and mice (D7-D12). Non-specific mouse IgG was labeled with FITC and used as a negative control (D1, D4, D7, D10). The sections were stained with FITC-Anti-LRP6-1 (D2, D5, D8, D11). FITC-Anti-LRP6-1 pre-absorbed with 10 μg/ml purified LRP6E1E2-His antigen was used for staining to confirm the specificity of the immunosignals of LRP6 (D3, D6, D9, D12).

endogenous mouse LRP6 = molecular target: T3, endogenous mouse LRP6 (mouse, UniProt O88572 20-1613); assay: Western blot, total cell lysates
T3 construct: whole, on cells; Tested as total cell lysate (Western blot) and in mouse retinal cryosections (immunostaining); also called LRP6 (mouse)
Procedure: as §1

VLDLR-N-His = molecular target: T4, VLDLR-N-His (human, UniProt P98155 28-797, limits assumed); assay: Western blot, recombinant VLDLR-N-His
T4 construct: domain: VLDLR-N; also called very low-density lipoprotein receptor; not shown: 6x histidine tag
Procedure: as §2

[2] = molecular target: endogenous bovine LRP6 (bovine); assay: cell-based or functional assay

Chain of endogenous human LRP6 (O75581 20-1613 limits assumed): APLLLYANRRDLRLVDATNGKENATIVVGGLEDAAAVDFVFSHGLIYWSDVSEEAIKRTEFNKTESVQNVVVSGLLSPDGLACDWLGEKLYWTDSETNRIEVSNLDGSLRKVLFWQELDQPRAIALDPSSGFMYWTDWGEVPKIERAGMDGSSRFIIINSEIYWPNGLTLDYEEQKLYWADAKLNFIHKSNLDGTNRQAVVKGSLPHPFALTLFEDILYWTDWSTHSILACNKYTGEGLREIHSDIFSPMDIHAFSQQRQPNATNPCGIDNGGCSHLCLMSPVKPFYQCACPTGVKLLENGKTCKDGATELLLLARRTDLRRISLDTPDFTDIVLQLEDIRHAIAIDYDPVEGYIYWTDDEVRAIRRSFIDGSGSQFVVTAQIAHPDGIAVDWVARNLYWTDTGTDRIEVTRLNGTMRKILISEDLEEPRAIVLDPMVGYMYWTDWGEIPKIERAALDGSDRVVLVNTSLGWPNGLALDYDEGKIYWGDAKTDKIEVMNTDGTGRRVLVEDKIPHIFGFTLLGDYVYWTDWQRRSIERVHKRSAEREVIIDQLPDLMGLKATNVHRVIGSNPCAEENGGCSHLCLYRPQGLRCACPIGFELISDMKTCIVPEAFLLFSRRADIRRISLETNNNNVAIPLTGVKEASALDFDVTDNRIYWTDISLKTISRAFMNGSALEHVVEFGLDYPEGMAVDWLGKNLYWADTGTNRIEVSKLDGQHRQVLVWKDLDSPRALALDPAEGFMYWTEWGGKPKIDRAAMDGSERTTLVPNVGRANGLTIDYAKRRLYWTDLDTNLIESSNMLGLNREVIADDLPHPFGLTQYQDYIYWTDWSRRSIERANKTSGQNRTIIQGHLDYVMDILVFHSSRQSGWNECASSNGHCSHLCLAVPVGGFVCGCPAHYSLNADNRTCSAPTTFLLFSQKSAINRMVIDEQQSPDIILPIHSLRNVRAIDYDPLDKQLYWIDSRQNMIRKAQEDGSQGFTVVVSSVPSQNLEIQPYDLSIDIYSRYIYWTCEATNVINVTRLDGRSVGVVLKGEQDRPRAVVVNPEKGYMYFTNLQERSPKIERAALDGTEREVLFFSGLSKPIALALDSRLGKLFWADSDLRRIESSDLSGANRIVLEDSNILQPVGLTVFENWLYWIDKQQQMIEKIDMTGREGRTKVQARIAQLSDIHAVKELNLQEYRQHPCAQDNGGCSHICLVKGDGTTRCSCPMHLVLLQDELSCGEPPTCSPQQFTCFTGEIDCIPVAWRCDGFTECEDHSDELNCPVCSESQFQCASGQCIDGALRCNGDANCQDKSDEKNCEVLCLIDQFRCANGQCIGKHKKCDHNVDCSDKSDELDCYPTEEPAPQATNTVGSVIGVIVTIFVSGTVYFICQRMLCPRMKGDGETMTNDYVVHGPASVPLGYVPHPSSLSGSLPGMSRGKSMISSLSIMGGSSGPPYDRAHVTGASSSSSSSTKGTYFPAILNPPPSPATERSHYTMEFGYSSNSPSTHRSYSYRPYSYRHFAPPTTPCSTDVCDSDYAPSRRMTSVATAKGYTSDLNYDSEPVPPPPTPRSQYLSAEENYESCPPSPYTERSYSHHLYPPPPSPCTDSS
T1 sequence (O75197 32-1615 limits assumed): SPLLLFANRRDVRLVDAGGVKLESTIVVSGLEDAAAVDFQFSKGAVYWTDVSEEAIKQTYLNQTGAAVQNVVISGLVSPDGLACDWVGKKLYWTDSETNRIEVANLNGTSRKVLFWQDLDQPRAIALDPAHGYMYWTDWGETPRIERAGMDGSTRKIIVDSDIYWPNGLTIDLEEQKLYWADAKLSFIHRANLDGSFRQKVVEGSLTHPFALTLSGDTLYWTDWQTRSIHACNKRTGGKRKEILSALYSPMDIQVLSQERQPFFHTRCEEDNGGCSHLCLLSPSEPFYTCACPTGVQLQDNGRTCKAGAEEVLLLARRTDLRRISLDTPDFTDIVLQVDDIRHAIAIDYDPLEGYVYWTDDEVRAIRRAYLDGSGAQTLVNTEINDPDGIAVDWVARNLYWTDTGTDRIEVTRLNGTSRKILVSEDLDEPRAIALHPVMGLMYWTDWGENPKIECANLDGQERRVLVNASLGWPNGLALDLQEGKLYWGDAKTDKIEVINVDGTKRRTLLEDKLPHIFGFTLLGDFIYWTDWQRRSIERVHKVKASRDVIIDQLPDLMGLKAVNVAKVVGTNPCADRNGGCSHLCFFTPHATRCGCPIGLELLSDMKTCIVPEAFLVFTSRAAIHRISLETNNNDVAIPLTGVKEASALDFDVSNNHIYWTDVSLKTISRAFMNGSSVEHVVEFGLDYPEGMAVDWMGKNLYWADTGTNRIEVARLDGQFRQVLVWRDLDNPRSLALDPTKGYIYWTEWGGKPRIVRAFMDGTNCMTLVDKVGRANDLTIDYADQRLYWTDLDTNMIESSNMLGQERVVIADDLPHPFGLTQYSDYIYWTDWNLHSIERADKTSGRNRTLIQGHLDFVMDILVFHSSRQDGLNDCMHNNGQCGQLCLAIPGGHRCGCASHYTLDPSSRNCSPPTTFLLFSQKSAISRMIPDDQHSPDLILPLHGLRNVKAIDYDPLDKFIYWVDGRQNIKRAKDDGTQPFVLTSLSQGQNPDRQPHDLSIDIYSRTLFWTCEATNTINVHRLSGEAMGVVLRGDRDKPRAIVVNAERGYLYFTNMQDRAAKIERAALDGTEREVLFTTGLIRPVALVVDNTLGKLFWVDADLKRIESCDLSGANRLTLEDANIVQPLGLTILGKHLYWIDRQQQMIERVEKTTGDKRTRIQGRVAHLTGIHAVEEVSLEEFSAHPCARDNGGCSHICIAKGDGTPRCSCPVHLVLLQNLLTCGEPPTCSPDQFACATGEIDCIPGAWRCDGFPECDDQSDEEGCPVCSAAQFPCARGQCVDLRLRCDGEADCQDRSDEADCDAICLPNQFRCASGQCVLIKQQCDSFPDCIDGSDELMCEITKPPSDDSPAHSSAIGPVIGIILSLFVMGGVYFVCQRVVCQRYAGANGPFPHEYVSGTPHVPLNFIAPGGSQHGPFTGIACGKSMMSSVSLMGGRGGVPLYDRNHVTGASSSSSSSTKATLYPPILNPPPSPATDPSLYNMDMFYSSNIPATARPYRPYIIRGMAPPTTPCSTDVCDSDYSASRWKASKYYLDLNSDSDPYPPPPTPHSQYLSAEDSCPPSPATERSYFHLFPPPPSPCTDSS
T3 sequence (O88572 20-1613): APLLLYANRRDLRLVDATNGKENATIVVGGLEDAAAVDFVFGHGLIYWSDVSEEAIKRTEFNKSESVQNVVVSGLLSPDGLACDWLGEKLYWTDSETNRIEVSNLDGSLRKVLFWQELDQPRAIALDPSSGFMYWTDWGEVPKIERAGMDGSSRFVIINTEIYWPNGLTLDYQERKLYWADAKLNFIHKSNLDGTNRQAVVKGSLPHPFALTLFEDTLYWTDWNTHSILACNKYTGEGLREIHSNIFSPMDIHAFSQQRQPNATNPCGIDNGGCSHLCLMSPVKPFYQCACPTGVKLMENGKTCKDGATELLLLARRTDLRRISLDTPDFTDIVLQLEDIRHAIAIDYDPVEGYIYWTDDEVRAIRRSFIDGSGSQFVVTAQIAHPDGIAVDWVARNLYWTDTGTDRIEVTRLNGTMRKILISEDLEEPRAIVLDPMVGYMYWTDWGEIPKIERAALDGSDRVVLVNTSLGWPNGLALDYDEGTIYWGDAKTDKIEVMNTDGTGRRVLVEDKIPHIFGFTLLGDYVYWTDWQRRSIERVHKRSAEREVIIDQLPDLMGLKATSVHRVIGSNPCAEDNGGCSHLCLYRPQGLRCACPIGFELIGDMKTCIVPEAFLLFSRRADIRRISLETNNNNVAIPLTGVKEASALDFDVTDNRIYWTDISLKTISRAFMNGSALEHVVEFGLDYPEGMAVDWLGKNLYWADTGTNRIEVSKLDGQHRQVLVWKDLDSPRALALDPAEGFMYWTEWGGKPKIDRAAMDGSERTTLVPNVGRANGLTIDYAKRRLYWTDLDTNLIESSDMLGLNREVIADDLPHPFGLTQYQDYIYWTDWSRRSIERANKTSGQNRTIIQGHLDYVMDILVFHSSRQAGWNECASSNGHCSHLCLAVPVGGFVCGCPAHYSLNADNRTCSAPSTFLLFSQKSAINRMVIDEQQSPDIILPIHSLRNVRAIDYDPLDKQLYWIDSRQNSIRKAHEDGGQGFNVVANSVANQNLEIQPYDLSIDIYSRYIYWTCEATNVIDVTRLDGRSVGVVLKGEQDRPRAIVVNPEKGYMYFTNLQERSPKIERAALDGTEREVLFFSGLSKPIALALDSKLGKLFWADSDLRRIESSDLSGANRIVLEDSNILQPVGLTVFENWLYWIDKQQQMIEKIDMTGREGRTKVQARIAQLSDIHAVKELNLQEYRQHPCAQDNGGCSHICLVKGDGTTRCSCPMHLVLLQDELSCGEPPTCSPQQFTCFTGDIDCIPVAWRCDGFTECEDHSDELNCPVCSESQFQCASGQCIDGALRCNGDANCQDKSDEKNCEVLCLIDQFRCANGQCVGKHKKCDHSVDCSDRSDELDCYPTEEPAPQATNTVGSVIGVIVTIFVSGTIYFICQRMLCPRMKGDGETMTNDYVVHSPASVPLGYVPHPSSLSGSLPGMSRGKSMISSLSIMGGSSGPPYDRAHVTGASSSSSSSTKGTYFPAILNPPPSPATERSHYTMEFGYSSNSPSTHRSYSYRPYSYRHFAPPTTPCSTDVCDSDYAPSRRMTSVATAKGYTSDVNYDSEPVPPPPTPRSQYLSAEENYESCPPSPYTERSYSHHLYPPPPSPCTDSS

B1: Anti-LRP6-1 (antibody, mouse IgG2, V domains shown)
VH: EVQLVESGGGLVQSKGSLKLSCAASGFTFNTYAMNWVRQAPGKGLEWVGRIRSKYNNYVTYYGDSVKDRFTISRDDSQSMLYLQMNNLKTEDTAMYYCVRQGRGSYAMDYWGQGTSVTVSS
VL: NIVMTQSPKSMSMSVGERVTLSCKASENVGTYVSWYQQKPEQSPKLLIYGASNRYTGVPDRFIGSGSATDFTLTIRSVQAEDLADYHCGQSYSYPTFGAGTKLELKR
notes: also called mAb2F1; 2F1
Which results are given for B1?
binding result [1]: no binding; EC50 of inhibition of Wnt1-induced TOPFLASH activity (hTERT-RPE cells) (endogenous human LRP6): ~20 µg/mL; EC50 of suppression of Wnt3A-induced Luciferase activity (TOPFLASH, hTERT-RPE cells) (endogenous human LRP6): ~20 µg/mL; binding result (LRP6E3E4-His): no binding; binding result (endogenous mouse LRP6): binds; binding result (VLDLR-N-His): no binding; IC50 of inhibition of LRP6 phosphorylation (Wnt3a-containing medium, RCEC, Western blot) [2]: 210 to 440 nM; IC50 of inhibition of [14C]thymidine incorporation into RCEC (proliferation, 1% O2) [2]: 500 to 2000 nM
